Data published in publication PMC11260452, “Cooperative Gsx2–DNA binding requires DNA bending and a novel Gsx2 homeodomain interface”.
Numbering of substitutions follows the chain as printed.

Legend:
Gsx2 167-305 [1] = target: T1, Gsx2 167-305 (Mus musculus, UniProt P31316 167-305); test: EMSA; similar free probe depletion, lower cooperativity; ITC: 50 mM sodium phosphate pH 6.5, 150 mM NaCl, 20 C; EMSA: 35 nM probe, 15 min room temperature, buffer as in cited ref 31; details: protein: recombinant; tags: N-terminal His-tag, cleaved with PreScission; chain copies: 2; label: 5' IRDye700 on complementary strand (linker S14); blunt
Gsx2HD L216E [2] = target: T2, Gsx2HD L216E (Mus musculus, UniProt P31316 203-264, L216E); test: EMSA; binds; reduced cooperativity; ITC: 50 mM sodium phosphate pH 6.5, 150 mM NaCl, 20 C; EMSA: 35 nM probe, 15 min room temperature, buffer as in cited ref 31; details: protein: recombinant; tags: N-terminal His-tag, cleaved with PreScission; label: 5' IRDye700 on complementary strand (linker S14); blunt
Gsx2HD L231E [3] = target: T3, Gsx2HD L231E (Mus musculus, UniProt P31316 203-264, L231E); test: as above; details: protein: recombinant; tags: N-terminal His-tag, cleaved with PreScission; label: 5' IRDye700 on complementary strand (linker S14); blunt
Gsx2HD S212E [4] = target: T4, Gsx2HD S212E (Mus musculus, UniProt P31316 203-264, S212E); test: as above; details: protein: recombinant; tags: N-terminal His-tag, cleaved with PreScission; label: 5' IRDye700 on complementary strand (linker S14); blunt
Gsx2 167-305 [5] = target: T1, Gsx2 167-305; test: ITC; K 0.7 ± 0.2 x10^7 M-1; N 0.94; ITC: 50 mM sodium phosphate pH 6.5, 150 mM NaCl, 20 C; EMSA: 35 nM probe, 15 min room temperature, buffer as in cited ref 31; details: protein: recombinant; tags: N-terminal His-tag, cleaved with PreScission; chain copies: 2; 5' overhang 1 nt on each strand
Gsx1HD [6] = target: T5, Gsx1HD (Mus musculus, UniProt P31315 146-207); test: ITC; K 2.4 ± 0.9 x10^7 M-1; N 0.97; ITC: 50 mM sodium phosphate pH 6.5, 150 mM NaCl, 20 C; EMSA: 35 nM probe, 15 min room temperature, buffer as in cited ref 31; details: protein: recombinant; 5' overhang 1 nt on each strand
Gsx2HD [7] = target: T6, Gsx2HD (Mus musculus, UniProt P31316 203-264); test: ITC; K 2.8 ± 1.4 x10^7 M-1; N 0.98; ITC: 50 mM sodium phosphate pH 6.5, 150 mM NaCl, 20 C; EMSA: 35 nM probe, 15 min room temperature, buffer as in cited ref 31; details: protein: recombinant; tags: N-terminal His-tag, cleaved with PreScission; chain copies: 2; 5' overhang 1 nt on each strand
Gsx2 167-305 [8] = target: T1, Gsx2 167-305; test: ITC; K 1.3 ± 0.6 x10^7 M-1; N 0.85; ITC: 50 mM sodium phosphate pH 6.5, 150 mM NaCl, 20 C; EMSA: 35 nM probe, 15 min room temperature, buffer as in cited ref 31; details: protein: recombinant; tags: N-terminal His-tag, cleaved with PreScission; chain copies: 2; 5' overhang 1 nt on each strand
Gsx1HD [9] = target: T5, Gsx1HD; test: ITC; K 5.5 ± 0.8 x10^7 M-1; N 0.96; ITC: 50 mM sodium phosphate pH 6.5, 150 mM NaCl, 20 C; EMSA: 35 nM probe, 15 min room temperature, buffer as in cited ref 31; details: protein: recombinant; 5' overhang 1 nt on each strand
Gsx2HD [10] = target: T6, Gsx2HD; test: ITC; K 6.8 ± 4.2 x10^7 M-1; N 1.02; ITC: 50 mM sodium phosphate pH 6.5, 150 mM NaCl, 20 C; EMSA: 35 nM probe, 15 min room temperature, buffer as in cited ref 31; details: protein: recombinant; tags: N-terminal His-tag, cleaved with PreScission; chain copies: 2; 5' overhang 1 nt on each strand
Gsx2HD I234E = Gsx2HD I234E (Mus musculus, UniProt P31316 203-264, I234E); test: ITC; K 5.1 ± 4.2 x10^7 M-1; N 1.05; Fig S6 isotherm 14.7 nM; ITC: 50 mM sodium phosphate pH 6.5, 150 mM NaCl, 20 C; EMSA: 35 nM probe, 15 min room temperature, buffer as in cited ref 31; details: protein: recombinant; tags: N-terminal His-tag, cleaved with PreScission; 5' overhang 1 nt on each strand
Gsx2HD L216E [11] = target: T2, Gsx2HD L216E; test: EMSA; binds equally to WT; little to no cooperativity; ITC: 50 mM sodium phosphate pH 6.5, 150 mM NaCl, 20 C; EMSA: 35 nM probe, 15 min room temperature, buffer as in cited ref 31; details: protein: recombinant; tags: N-terminal His-tag, cleaved with PreScission; label: 5' IRDye700 on complementary strand (linker S14); blunt
Gsx2HD L231E [12] = target: T3, Gsx2HD L231E; test: as above; details: protein: recombinant; tags: N-terminal His-tag, cleaved with PreScission; label: 5' IRDye700 on complementary strand (linker S14); blunt
Gsx2HD S212E [13] = target: T4, Gsx2HD S212E; test: as above; details: protein: recombinant; tags: N-terminal His-tag, cleaved with PreScission; label: 5' IRDye700 on complementary strand (linker S14); blunt

T1 sequence (P31316 167-305): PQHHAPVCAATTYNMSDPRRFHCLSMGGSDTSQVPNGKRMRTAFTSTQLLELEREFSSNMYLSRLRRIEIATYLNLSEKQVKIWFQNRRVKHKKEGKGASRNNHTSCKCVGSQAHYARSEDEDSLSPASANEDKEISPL
T3 sequence (P31316 203-264 L231E): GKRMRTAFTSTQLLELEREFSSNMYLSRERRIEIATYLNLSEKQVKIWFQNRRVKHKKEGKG
T6 sequence (P31316 203-264): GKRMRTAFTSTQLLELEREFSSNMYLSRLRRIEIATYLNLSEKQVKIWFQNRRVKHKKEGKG
T5 sequence (P31315 146-207): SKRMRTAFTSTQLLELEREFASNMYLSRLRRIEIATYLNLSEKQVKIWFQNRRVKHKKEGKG
T2 sequence (P31316 203-264 L216E): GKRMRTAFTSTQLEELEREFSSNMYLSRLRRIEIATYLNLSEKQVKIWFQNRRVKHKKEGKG
T4 sequence (P31316 203-264 S212E): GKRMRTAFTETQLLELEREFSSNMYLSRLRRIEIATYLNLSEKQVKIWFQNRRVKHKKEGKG
Chain of Gsx2HD I234E (P31316 203-264 I234E): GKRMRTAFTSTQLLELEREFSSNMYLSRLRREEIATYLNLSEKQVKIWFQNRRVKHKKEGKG

B1: GCGGG spacer dimer probe (dsDNA)
DNA 1: TCCAACTAATTAGCGGGTAATTCGTAGTGCGGGCGTGGCT
DNA 2: AGCCACGCCCGCACTACGAATTACCCGCTAATTAGTTGGA
**Q.** How did the “cooperativity factor (tau)” value (Gsx2 167-305 [1]) turn out when B1 was run?
**A.** 12.6 tau cooperativity factor (mean of 3 G/C spacer probes)

B2: 7bpS / AAATT spacer dimer probe (dsDNA)
DNA 1: B1 DNA 1 with G13A, C14A, G15A, G16T, G17T
DNA 2: B1 DNA 2 with C24A, C25A, C26T, G27T, C28T
**Q.** Does B2 bind (Gsx2HD L216E [2])?
**A.** binds

**Q.** Does B2 bind (Gsx2HD L231E [3])?
**A.** binds

**Q.** Does B2 bind (Gsx2HD S212E [4])?
**A.** binds

B3: GCCGG spacer dimer probe (dsDNA)
DNA 1: B1 DNA 1 with G15C
DNA 2: B1 DNA 2 with C26G
**Q.** With B3 as the binder, how does the “cooperativity factor (tau)” value (Gsx2 167-305 [1]) read?
**A.** 12.6 tau cooperativity factor (mean of 3 G/C spacer probes)

B4: GGGCC spacer dimer probe (dsDNA)
DNA 1: B1 DNA 1 with C14G, G16C, G17C
DNA 2: B1 DNA 2 with C24G, C25G, G27C
**Q.** For B4, which “cooperativity factor (tau)” value (Gsx2 167-305 [1]) is on record?
**A.** 12.6 tau cooperativity factor (mean of 3 G/C spacer probes)

B5: TAATGG 15-mer (Common Q50 site) (dsDNA)
DNA 1: TGAGCTAATGGAAGC
DNA 2: AGCTTCCATTAGCTC
**Q.** With B5 as the binder, how does the Kd (Gsx2 167-305 [5]) read?
**A.** 143 nM

**Q.** And the Kd (Gsx1HD [6])?
**A.** 42 nM

**Q.** What about the Kd (Gsx2HD [7]) of the same binder?
**A.** 36 nM

B6: TAATTA consensus 15-mer (dsDNA)
DNA 1: TGAGCTAATTAAAGC
DNA 2: AGCTTTAATTAGCTC
**Q.** How did the Kd (Gsx2 167-305 [8]) turn out when B6 was run?
**A.** 77 nM

**Q.** What about the Kd (Gsx1HD [9]) of the same binder?
**A.** 18 nM

**Q.** And the Kd (Gsx2HD [10])?
**A.** 15 nM

**Q.** What about the Kd (Gsx2HD I234E) of the same binder?
**A.** 20 nM

B7: 8bpS dimer probe (dsDNA)
DNA 1: TCCAACTAATTAAAGATTTAATTCGTAGTGCGGGCGTGGCT
DNA 2: AGCCACGCCCGCACTACGAATTAAATCTTTAATTAGTTGGA
**Q.** Does B7 bind (Gsx2HD L216E [11])?
**A.** binds

**Q.** Does B7 bind (Gsx2HD L231E [12])?
**A.** binds

**Q.** Does B7 bind (Gsx2HD S212E [13])?
**A.** binds
